Data from patent publication US20260015426A1 (23ANDME, published 2026).
Residue numbers refer to the chain shown, from its start. Names may count otherwise.

What was measured:
[1] = molecular target: T1, hu-M-IL1RAP construct, positions S21-T367 (extracellular domain of the membrane form of human IL1RAP) (human, UniProt Q9NPH3 21-367); assay: phage display selection of affinity maturation libraries + NGS; enrichment of the mutation Y30W (VL)
T1 construct: Biotinylated when captured on the Biacore chip
T1 sequence: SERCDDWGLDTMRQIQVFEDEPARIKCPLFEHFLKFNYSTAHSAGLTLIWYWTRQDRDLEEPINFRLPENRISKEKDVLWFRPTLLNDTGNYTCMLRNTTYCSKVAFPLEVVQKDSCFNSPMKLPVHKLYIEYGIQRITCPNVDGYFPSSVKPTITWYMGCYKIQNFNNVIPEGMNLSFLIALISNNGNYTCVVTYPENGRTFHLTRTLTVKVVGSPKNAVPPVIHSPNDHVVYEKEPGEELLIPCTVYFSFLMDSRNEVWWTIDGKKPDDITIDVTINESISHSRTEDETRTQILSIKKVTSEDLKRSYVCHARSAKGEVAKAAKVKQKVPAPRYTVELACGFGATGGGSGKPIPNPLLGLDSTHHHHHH

[2] = molecular target: T1, hu-M-IL1RAP construct, positions …; assay: SPR, Fab analyte, 25 C
[3] = molecular target: T1, hu-M-IL1RAP construct, positions …; assay: SPR, Fab against parent Fab
[4] = molecular target: T1, hu-M-IL1RAP construct, positions …; assay: phage display selection of affinity maturation libraries + NGS; enrichment of the mutation A51L (VL)
[5] = molecular target: T1, hu-M-IL1RAP construct, positions …; assay: phage display selection of affinity maturation libraries + NGS; enrichment of the mutation A51D (VL)
[6] = molecular target: T1, hu-M-IL1RAP construct, positions …; assay: phage display selection of affinity maturation libraries + NGS; enrichment of the mutation L33G (VL)
[7] = molecular target: T1, hu-M-IL1RAP construct, positions …; assay: phage display selection of affinity maturation libraries + NGS; enrichment of the mutation W92K (VL)
[8] = molecular target: T1, hu-M-IL1RAP construct, positions …; assay: phage display selection of affinity maturation libraries + NGS; enrichment of the mutation A51R (VL)
[9] = molecular target: T1, hu-M-IL1RAP construct, positions …; assay: phage display selection of affinity maturation libraries + NGS; enrichment of the mutation W92L (VL)
[10] = molecular target: T2, human IL1RAP (hu-IL1RAP) on human cells (human, UniProt Q9NPH3 21-570); assay: cell-based or functional assay
T2 sequence: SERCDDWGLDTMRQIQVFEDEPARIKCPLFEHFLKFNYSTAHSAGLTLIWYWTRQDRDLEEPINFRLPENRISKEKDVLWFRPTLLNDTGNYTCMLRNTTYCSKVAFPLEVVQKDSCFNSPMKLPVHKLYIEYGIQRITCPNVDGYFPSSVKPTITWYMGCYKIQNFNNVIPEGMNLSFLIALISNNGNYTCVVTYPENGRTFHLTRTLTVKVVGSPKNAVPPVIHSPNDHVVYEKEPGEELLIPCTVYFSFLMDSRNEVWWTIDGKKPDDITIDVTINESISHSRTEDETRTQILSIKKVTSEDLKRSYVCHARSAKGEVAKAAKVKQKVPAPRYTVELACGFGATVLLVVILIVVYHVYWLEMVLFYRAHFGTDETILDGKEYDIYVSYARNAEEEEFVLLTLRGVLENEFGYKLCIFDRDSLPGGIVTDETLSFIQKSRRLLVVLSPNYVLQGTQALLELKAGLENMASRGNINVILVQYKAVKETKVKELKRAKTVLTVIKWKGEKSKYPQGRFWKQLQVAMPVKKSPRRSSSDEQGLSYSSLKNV

[11] = molecular target: T3, cyno-M-IL1RAP construct, positions S21-T367 (cynomolgus monkey, UniProt P59822 21-367 (rhesus entry)); assay: SPR, against YKD
T3 construct: Biotinylated when captured on the Biacore chip; also called cy-M-IL1RAP
T3 sequence: T1 sequence with L183F, T273P, K326T

[12] = molecular target: T1, hu-M-IL1RAP construct, positions …; assay: SPR, against YKD
[13] = molecular target: T4, biotinylated cyno FcRn (Acro biosystems, catalogue number FCM-C5284) (cynomolgus monkey, UniProt Q8SPV9 24-297; Q8SPW0 21-119, limits assumed, biotinylated); assay: SPR steady state, FcRn captured, 25 C, pH 6.0; pH 6.0
T4 construct: Bought reagent

[14] = molecular target: T5, biotinylated human FcRn (Acro biosystems, catalogue number FCN-H52W7) (human, UniProt P55899 24-297; P61769 21-119, biotinylated); assay: as above
T5 construct: Bought reagent; also called hu-FcRn

[15] = molecular target: T3, cyno-M-IL1RAP construct, positions …; assay: SPR, IgG analyte (apparent), pH 7.4, 37 C
[16] = molecular target: T1, hu-M-IL1RAP construct, positions …; assay: SPR, IgG analyte (apparent), pH 7.4, 37 C
[17] = molecular target: T3, cyno-M-IL1RAP construct, positions …; assay: SPR, against YIS
[18] = molecular target: T1, hu-M-IL1RAP construct, positions …; assay: SPR, against YIS

T5 sequence (P55899 24-297 limits assumed, chain 1 of 2): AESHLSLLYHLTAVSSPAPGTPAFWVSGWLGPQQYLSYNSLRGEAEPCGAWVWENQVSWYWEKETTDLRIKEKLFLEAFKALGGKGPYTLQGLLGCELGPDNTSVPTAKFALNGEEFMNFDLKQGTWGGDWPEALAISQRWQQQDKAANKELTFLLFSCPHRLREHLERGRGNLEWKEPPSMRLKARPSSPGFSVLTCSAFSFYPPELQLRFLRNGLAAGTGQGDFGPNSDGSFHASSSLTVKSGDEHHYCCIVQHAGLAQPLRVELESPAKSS
T5 sequence (P61769 21-119 limits assumed, chain 2 of 2): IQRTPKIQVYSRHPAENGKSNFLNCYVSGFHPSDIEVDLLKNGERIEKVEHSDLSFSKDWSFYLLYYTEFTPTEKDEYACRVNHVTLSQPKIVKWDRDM

B1: K1 Fab (VL Y30W) (Fab, V domains shown)
VH: EVQLVESGGGLVQPGGSLRLSCAASGFTFSNYAMSWVRQAPGKGLEWVATVTEGGDYNYYLDDVKGRFTISRDNAKNSLYLQMNSLRAEDTAVYYCARDRWPYFFDYWGQGTLVTVSS
VL: DIQMTQSPSSLSASVGDRVTITCRASENIWSNLAWYQQKPGKSPKLLVYGAKNLADGVPSRFSGSGSGTDYTLTISSLQPEDFATYYCQHFWTTPRTFGGGTKVEIK
notes: Fab with 8xHis tag
- Enrichment ratio (at the highest selection stringency) [1]: 3.52 ratio
- Kd [2]: 0.0372 nM
- koff [2]: 0.00018 s⁻¹
- kon [2]: 4.82e+06 M⁻¹ s⁻¹
- Fold Improvement in KD @ 25° C. [3]: 9.06 fold

B2: K8 Fab (VL A51L) (Fab, V domains shown)
VH: B1 VH
VL: B1 VL with W30Y, A51L
notes: Fab with 8xHis tag
- Enrichment ratio (at the highest selection stringency) [4]: 2.9 ratio
- Kd [2]: 0.0131 nM
- koff [2]: 6.76e-05 s⁻¹
- kon [2]: 5.15e+06 M⁻¹ s⁻¹
- Fold Improvement in KD @ 25° C. [3]: 25.7 fold

B3: K9 Fab (VL A51D) (Fab, V domains shown)
VH: B1 VH
VL: B1 VL with W30Y, A51D
notes: Fab with 8xHis tag
- Enrichment ratio (at the highest selection stringency) [5]: 2.84 ratio
- Kd [2]: 0.021 nM
- koff [2]: 0.000103 s⁻¹
- kon [2]: 4.93e+06 M⁻¹ s⁻¹
- Fold Improvement in KD @ 25° C. [3]: 16.1 fold

B4: K2 Fab (VL L33G) (Fab, V domains shown)
VH: B1 VH
VL: B1 VL with W30Y, L33G
notes: Fab with 8xHis tag
- Enrichment ratio (at the highest selection stringency) [6]: 1.71 ratio
- Kd [2]: 0.0346 nM
- koff [2]: 0.000158 s⁻¹
- kon [2]: 4.57e+06 M⁻¹ s⁻¹
- Fold Improvement in KD @ 25° C. [3]: 9.74 fold

B5: K3 Fab (VL W92K) (Fab, V domains shown)
VH: B1 VH
VL: B1 VL with W30Y, W92K
notes: Fab with 8xHis tag
- Enrichment ratio (at the highest selection stringency) [7]: 3.31 ratio
- Kd [2]: 0.0523 nM
- koff [2]: 0.000198 s⁻¹
- kon [2]: 3.78e+06 M⁻¹ s⁻¹
- Fold Improvement in KD @ 25° C. [3]: 6.44 fold

B6: K7 Fab (VL A51R) (Fab, V domains shown)
VH: B1 VH
VL: B1 VL with W30Y, A51R
notes: Fab with 8xHis tag
- Enrichment ratio (at the highest selection stringency) [8]: 2.89 ratio
- Kd [2]: 0.0119 nM
- koff [2]: 6.26e-05 s⁻¹
- kon [2]: 5.25e+06 M⁻¹ s⁻¹
- Fold Improvement in KD @ 25° C. [3]: 28.3 fold

B7: K4 Fab (VL W92L) (Fab, V domains shown)
VH: B1 VH
VL: B1 VL with W30Y, W92L
notes: Fab with 8xHis tag
- Enrichment ratio (at the highest selection stringency) [9]: 0.416 ratio
- Kd [2]: 0.147 nM
- koff [2]: 0.000751 s⁻¹
- kon [2]: 5.12e+06 M⁻¹ s⁻¹
- Fold Improvement in KD @ 25° C. [3]: 2.29 fold

B8: h11C5 variant YKD/YTE (antibody, human IgG1, kappa, N297G)
heavy: EVQLVESGGGLVQPGGSLRLSCAASGFTFSNYAMSWVRQAPGKGLEWVATVTEGGDYNYYLDDVKGRFTISRDNAKNSLYLQMNSLRAEDTAVYYCARDDWPYFFDYWGQGTLVTVSSASTKGPSVFPLAPSSKSTSGGTAALGCLVKDYFPEPVTVSWNSGALTSGVHTFPAVLQSSGLYSLSSVVTVPSSSLGTQTYICNVNHKPSNTKVDKKVEPKSCDKTHTCPPCPAPELLGGPSVFLFPPKPKDTLYITREPEVTCVVVDVSHEDPEVKFNWYVDGVEVHNAKTKPREEQYGSTYRVVSVLTVLHQDWLNGKEYKCKVSNKALPAPIEKTISKAKGQPREPQVYTLPPSRDELTKNQVSLTCLVKGFYPSDIAVEWESNGQPENNYKTTPPVLDSDGSFFLYSKLTVDKSRWQQGNVFSCSVMHEALHNHYTQKSLSLSPGK
light: DIQMTQSPSSLSASVGDRVTITCRASENIYSNLAWYQQKPGKSPKLLVYGYKNLADGVPSRFSGSGSGTDYTLTISSLQPEDFATYYCQHFKTTPRTFGGGTKVEIKRTVAAPSVFIFPPSDEQLKSGTASVVCLLNNFYPREAKVQWKVDNALQSGNSQESVTEQDSKDSTYSLSSTLTLSKADYEKHKVYACEVTHQGLSSPVTKSFNRGEC
notes: YKD with M252Y/S254T/T256E (Eu index) in the Fc; N297G; also called 11C5-YKD/YTE; YKDNTE
- CD4+ T cells, IL-33+IL-12 stimulated IFN-γ, IC50 [10]: 44 nM
- HEK-Blue, IL-1β, IC50 [10]: 0.51 nM
- HEK-Blue, IL-33, % inhibition at 100 nM [10]: 97%
- HEK-Blue, IL-33, IC50 [10]: 3.3 nM
- HEK-Blue, IL-36β, IC50 [10]: 0.9 nM
- HEKn, IL-36β stimulated IL-8, IC50 [10]: 1.16 nM
- NK cells, IL-33+IL-12 stimulated IFN-γ, IC50 [10]: 1.32 nM
- PHLF, IL-1α stimulated IL-8, IC50 [10]: 6.47 nM
- PHLF, IL-36β stimulated IL-8, IC50 [10]: 0.5 nM
- basophils, IL-33 stimulated p38 phosphorylation, IC50 [10]: 41 nM
- monocytes, IL-1β stimulated IL-6, IC50 [10]: 0.158 nM
- KD YTE/KD Parental [11]: 0.98 ratio
- KD YTE/KD Parental [12]: 0.84 ratio
- Kd [13]: 21.4 nM
- Kd [14]: 130 nM
- Kd [15]: 0.0219 nM
- koff [15]: 4.9e-05 s⁻¹
- kon [15]: 2.24e+06 M⁻¹ s⁻¹
- Kd [16]: 0.0254 nM
- koff [16]: 5.12e-05 s⁻¹
- kon [16]: 2.02e+06 M⁻¹ s⁻¹

B9: h11C5 variant YIS/YTE (antibody, human IgG1, kappa, N297G)
heavy: B8 heavy with V51S, D100R
light: B8 light with K92I
notes: YIS with M252Y/S254T/T256E (Eu index) in the Fc; N297G; also called 11C5-YIS/YTE
- KD YTE/KD Parental [17]: 0.69 ratio
- KD YTE/KD Parental [18]: 0.99 ratio
- Kd [15]: 0.00798 nM
- koff [15]: 3.07e-05 s⁻¹
- kon [15]: 3.85e+06 M⁻¹ s⁻¹
- Kd [16]: 0.013 nM
- koff [16]: 4.43e-05 s⁻¹
- kon [16]: 3.42e+06 M⁻¹ s⁻¹
